B1: Ab712 (antibody, V domains shown)
VH: QVQLVQSGSELKKPGASVKISCKASGYTFINHAINWVRQAPGQGLEWMGWINTNTGNPTYAPGFTGRFVFSLDTSVSTAYLQISSLKAEDTAVYYCARIPIRDYDYDGSGYYYFLDYWGQGTLVTVSS
VL: SYELTQDPAVSVALGQTVRITCQGDSLRSSSASWYQQKPGQAPVLVIYGKTNRPSGIPDRFSGSSSGNTASLTITGAQAEDEADYYCNSRDNSGNHPVVFGGGTKLTVL
B2: Ab847 (antibody, V domains shown)
VH: EVQLVQSGAEVKKPGASVKVSCKASGYTFTSYDIIWVRQATGQGLEWMGWMDPSRGTTGYAQTFQGRVTMTRDTSISTAYLELNSLTSEDTAVYYCVAHIVVLDRWFDPWGQGTLVTVSS
VL: DIVMTQSPSSLSASVGDRVTITCQASQDIGNFLNWCQQKPGQAPKVLIYGASNLETGVPSRFSGSGSGTDFTFTISSLQPEDIATYYCQHYDNFPPRFTFGQGTKLDIK
B3: Ab376 (antibody, V domains shown)
VH: EVQLVESGGGLVQPGGSLRLSCEASEFTLNSHYMNWVRQAPGKGLEWVSVIYSSGSTYYADSVKGRFTISRHNSKDTLYLQMNSLKPEDTAVYYCARPNYGGNSIWYFDLWGRGTLVTVSS
VL: DIQMTQSPSSVSASVGDRVTITCRASQGIGSWLAWYQQTPGKAPKLLIYAASSLQSGVPSRFSGSGSGTDFTLTISSLQPEDFATYYCQQANSFPLTFGGGTKVEIK
B4: Ab302 (antibody, V domains shown)
VH: EVQLVESGGGLVQPGGSLRLSCAASGVIVSRNYMTWVRQAPGKGLEWVSVIYSGGSTFYADSVKGRFTISRDNSKNTLYLQMNSLRAEDTAVYYCARDRGEDVFDIWGQGTMVTVSS
VL: DIQLTQSPSSLSASVGDRVTITCRASQGISSYLAWYQQKPGKAPKLLIYAASTLQSGVPSRFSGSGSGTDFTLTISSLQPEDFATYYCQQLNSYPGYTFGQGTKLEIK
B5: Ab709TK (antibody, V domains shown)
VH: QVQLVESGGGVVQPGKSLRLSCAASGFTFSSYAMHWVRLAPGKGLEWVAVISPDGKNKYYVDSVKGRSTISRDNSKNTLYLLMNSLRAEDTAVYYCATTQSLWFGQFYYIYGMDVWGQGTTVTVSS
VL: QSVLTQPHSVSESPGKTITISCTGSSGSIASNYVQWYQQRPGSAPTTVIYEDTERPSGVPDRFSGSIDSSSNSASLTISGLKTEDEADYYCQSYDSNNVVFGGGTKLTVL
B6: Ab369 (antibody, V domains shown)
VH: QVQLVQSGAEVKKPGASVKVSCKASGYTLTNRAIHWVRQAPGQRLEWMGWINAGKGNTKYSQKFQGRVTITRDTSASTAYMELSSLKSEDTAFYYCATGDGYNYGYDSWGQGTLVTVSS
VL: NFMLTQPPSVSVAPGKTARISCGGTNIGSKSVHWYQQKPGQAPVLVVHDDSDRPSGIPERFSASNSGNTATLTISRVEAGDEADYYCQVWDSTSDLPEVVFGGGTKLTVL
B7: Ab315 (antibody, V domains shown)
VH: EVQLLESGGGLIQPGGSLRLSCAASGLIVSSNYMSWVRQAPGKGLEWVSVIYSGGSTYYADSVKGRFISSRDNSKNTLYLQMNSLRAEDTAVYYCARGELDLPYGMDVWGQGTTVTVSS
VL: QAVVTQPPSVSAAPGQKVTISCSGSSSNIGNNYVSWYQQLPGTAPKLLICDTNKRPSGIPDRFSGSKSGTSATLGITGLQTGDEADYYCGTWDRSLSAGVFGGGTKLTVL
B8: Ab816 (antibody, V domains shown)
VH: QVQLVQSGAEVKKPGESLMISCKASGYNFRNYWIAWVRQMPGKGLEWMGIIHPGDSDIRYRPSLQGHVTISADKSITTAYLQWGSLKASDTAMYYCTRITTDADSSGLFHYWGQGTLVTVSS
VL: EIVLTQSPSTLSASVGDRVTITCRASQNIYTWLAWYQRKPGKAPKVLIYKASSLESGVPSRFSGSGSGTEFTLTISSLQPDDFATYYCQQYKSAWSFGQGTKVEIK
B9: Ab863 (antibody, V domains shown)
VH: EVQLVQSGAEVKKPGASVKVSCQASGYTFITYYMHWVRQAPGQGLEWMGIINPDGGSISYAQKFQGRVTMTRDTSTSTVYMELSSLRSEDTAVYYCARGLSPTFSSSWFDNWGLGTLVTVSS
VL: DVVMTQSPATLSVSPGERATLSCRASQSVSSNLAWYQQKPGQAPRLLIYGASTRDTGIPARFSGSGSGTEFTLTISSLQSEDFAVYFCQQYKNWLLTFGGGTKVEIK
B10: Ab374 (antibody, V domains shown)
VH: EVQLVESGGGLIQPGGSLRLSCVASGFTVSSNYLAWVRQAPGQGLEWVSLIYPGGSTFYADSVKGRFTISRGNSNNTLYLQLNSLRTEDTAVYYCASLYRRGGDSWGQGTLVTVSS
VL: DIQMTQSPSSLSASVGDRVTITCQASQDIRNYLNWYQQKPGKAPKLLIYDASNLQTGVPSRFSGRGSGTDFTFTISSLQAEDIATYYCQQYDNLPITFGQGTRLEIK
B11: Ab864 (antibody, V domains shown)
VH: EVQLVESGGGLVQPGRSLRLSCAASGFTFDDYAMHWVRQVPGKGLEWVSGISWNKGNIDYADSVKGRFTISRDNAKNSLYLQMNSLRPEDTGLYYCAKDCHYDSPGYFPNCLHSWGQGTLVTVSS
VL: EIVMTQSPSSLSASVGDRVTITCRASQGINTYLAWYQQKPGKAPKLLIYTASTLQSGVPSRFSGSGSGTDFTLTISSLQPEDFATYYCQQVHSYPLTFGGGTKVEIK
B12: Ab176 (antibody, V domains shown)
VH: EVQLVESGGGLVQPGGSLRLSCAASGFTFSSYSMNWVRQAPGKGLEWVSYISGSSSTIYYADSVKGRFTISRDNAKNSLYLQMNSLRAEDTAVYYCVSSEWLLPRFFDYWGQGTLVTVSS
VL: QPVLTQEASVSGTVGQKVTLSCTGNRNNIGSYPVGWYQQISHGAPKTVMFGNSPPSGIPDRFFGSRSGTTASLTISGLQPEDEADYYCSTWDYSLSAVVFGGGTKLTVL
B13: Ab114 (antibody, V domains shown)
VH: EVQLVESGGGLIQPGGSLRLSCAASGFTVSSNYMNWVRQAPGKGLEWVSVIYSGGSTFYADSVKGRFTISRDNSKNTLYLQMNSLRVEDTAVYYCARDLDTQGGMDVWGQGTTVTVSS
VL: EIVLTQSPGSLSLSPGERATLSCRASQGVSSSYLAWYQHKPGQAPRLLIFGASTRATGIPDRFSGSGSGTDFTLTISRLEPEDFAVYYCQLYGSSPGTFGQGTKLEIK
B14: Ab803 (antibody, V domains shown)
VH: EVQLVESGGGLVQPGRSLRVSCAASGFTFDDYAMHWVRQTPRKGLEWVAGISRNSAAIAYADSVKGRFTISRDNAKNSVFLQMNGLRADDTALYYCVKSPRYGWGSPDYSFDFWGRGTLVTVSS
VL: DIQLTQSPSSLSASVGDRVTITCRASQNIGTYLNWYQQEPGKAPKLLIYAASSLQSGVPSRFSGSGSGTDFTLTISSLQPEDFATYCCQQSFTTPLTFGQGTKVEIK
B15: Ab765 (antibody, V domains shown)
VH: QVQLVESGGGVVQPGRSLRLSCAASGFTFSDYAIHWVRQAPGRGLEPVALISYDGNNKYYADSVKGRFTISRDNSKNVLYLQMNSLRADDTAVYYCARDAEGGWVAALDYWGQGTLVTVSS
VL: QSALTQPRSVSGSPGQSVTISCTGTSSDVGGYNYVSWYQHHPGKAPKVMIYEVSKRPSGVPDRFSGSKSGTTASLTISGLQAEDEADYYCCSYAGTYPYVFGTGTKVTVL
B16: Ab830 (antibody, V domains shown)
VH: QVQLVQSGAEVKKPGSSVKVSCKTSGGTFTNYTISWVRQAPGQGLEWMGRIIPIFDIVNYAQKFQGRVTITADKSTSTTYMELSSLRSEDTAVYYCARDGVLYDTSGYLYDAFDIWGQGTMVTVSS
VL: DIQMTQSPSSLSASVGDRVTITCRASQGINNYLAWFQQKPGKAPKSLIYAASSLQSGVPPKFSGSGSGTDFTLTISSLQPEDFATYYCLHYNSYPWTFGQGTKVEIK
B17: Ab175 (antibody, V domains shown)
VH: EVQLVESGGGLVQPGGSLRLSCAASGIIVSSNYMTWVRQAPGKGLEWVSVLYSGGSTFYADSVKGRFTISRDNSKNMLYLQMNSLRAEDTAVYYCARDLQELGVDCWGQGTLVTVSS
VL: DIQLTQSPSFLSASVGDRVTITCRASQGISSYLAWYQQKPGKAPKLLIYAASTLQSGVPSRFSGSGSGTEFTLTISSLQPEDFATYYCQQLDSYPRFGGGTKVEIK

Assays:
[1] = target: T1, full-length spike protein of SARS-CoV-2 (Wuhan strain) (SARS-CoV-2 (Wuhan strain), UniProt P0DTC2 14-1273); test: ACE2 competition, spike on 293T cells, antibody 4 µg/mL
T1 construct: whole, on cells; Expressed in 293T cells

[2] = target: spike protein of SARS-CoV-2 (Wuhan strain) on pseudovirus (SARS-CoV-2 (Wuhan strain), UniProt P0DTC2 14-1254); test: cell-based or functional assay
[3] = target: T2, RBD derived from SARS-CoV-2 (Wuhan strain) (SARS-CoV-2 (Wuhan strain), UniProt P0DTC2 319-541); test: BLI (Octet), RBD of the Wuhan strain
T2 construct: domain: RBD

[4] = target: T2, RBD derived from SARS-CoV-2 (Wuhan …); test: RBD beads, antibody 1 µg/mL, then labelled ACE2, flow cytometry
[5] = target: T2, RBD derived from SARS-CoV-2 (Wuhan …); test: RBD beads, antibody 4 µg/mL, then labelled ACE2, flow cytometry
[6] = target: T2, RBD derived from SARS-CoV-2 (Wuhan …); test: RBD beads, antibody 0.25 µg/mL, then labelled ACE2, flow cytometry

| Binder | binding amount (%) of ACE2 protein [1] | IC50 of pseudovirus infection (luciferase) [2] | Kd [3] | fluorescence of ACE2 protein [4] | fluorescence of ACE2 protein [5] | fluorescence of ACE2 protein [6] |
| --- | --- | --- | --- | --- | --- | --- |
| B1 | 4.6% | 0.105 µg/mL |  |  |  |  |
| B2 | 0.3% | 0.0403 µg/mL |  |  |  |  |
| B3 | 5.1% |  | 0.11 nM | 134 | 45 | 445 |
| B4 | 4.7% |  |  | 372 | 189 | 1400 |
| B5 | 0.6% | 0.0717 µg/mL |  |  |  |  |
| B6 | 4.1% |  | 0.197 nM | 430 | 107 | 1640 |
| B7 | 5.2% |  |  | 307 | 160 | 927 |
| B8 | 0.3% | 0.023 µg/mL |  |  |  |  |
| B9 | 1.7% |  |  |  |  |  |
| B10 | 10.1% |  |  | 429 | 244 | 1360 |
| B11 | 0.4% | 0.0084 µg/mL | 3.9 nM |  |  |  |
| B12 | 8.3% |  |  | 1190 | 366 | 2660 |
| B13 | 10.9% |  |  | 2040 | 672 | 3900 |
| B14 | 0.9% | 0.0468 µg/mL |  |  |  |  |
| B15 | 0.9% | 0.005 µg/mL |  |  |  |  |
| B16 | 0.9% | 0.0349 µg/mL |  |  |  |  |
| B17 | 6.9% |  |  | 439 |  | 1660 |

From patent publication US20230348573A1 (KEIO UNIVERSITY, published 2023)
